Data from patent US11332546B2, “Protease inhibitory antibodies and methods of use thereof” (The Regents of The University of California, priority 2019, dated 2022).
Substitutions are numbered along the chain they refer to.

Legend:
cathepsin B [1] = target: T1, cathepsin B (Homo sapiens, UniProt P07858); assay: Binding kinetics by biolayer interferometry, Fabs on cathepsin B; settings: Fab, read-out: Binding Affinity KD
T1 construct: human cathepsin B (residue 66-339); hexahistidine (C); made in house; host or cells: E. coli (periplasm)
Procedure: Binding kinetics of produced antibodies towards associated protease targets were analyzed by using biolayer interferometry (ForteBio). For Fabs, biotinylated proteases were immobilized on streptavidin biosensors, and Fab binding to the sensors in absence of protease was monitored as backgrounds. For IgGs, protein A sensors were used and protease bindings without IgG were checked as backgrounds. kon and koff were determined for KD calculations. […] Fab in vitro stability was tested by incubating 1 μM Fab with 1 μM of the respective protease in the assay buffer for 12 hours and the samples were analyzed by SDS-PAGE.

cathepsin K = target: T2, cathepsin K (Homo sapiens, UniProt P43235); assay: FRET inhibition selectivity test, cathepsin K; format: biochemical; settings: same Fab concentrations as for cathepsin B
T2 construct: hexahistidine (C); made in house; host or cells: E. coli (periplasm)
T2 sequence (P43235 115-329): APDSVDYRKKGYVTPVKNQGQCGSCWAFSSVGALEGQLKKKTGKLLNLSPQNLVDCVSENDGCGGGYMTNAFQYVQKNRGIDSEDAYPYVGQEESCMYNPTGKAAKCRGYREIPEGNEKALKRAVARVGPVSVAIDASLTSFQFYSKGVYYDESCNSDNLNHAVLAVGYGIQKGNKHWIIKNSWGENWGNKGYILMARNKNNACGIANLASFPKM
Procedure: (§1) For inhibition tests, 1 μM Fabs were 2-fold serially diluted into protease specific assay buffer and incubated with 1-10 nM proteases for 30 min at room temperature. […] Inhibition percentages at given concentrations were calculated by comparing the initial reaction rates in the presence or absence of inhibitor. IC50 was determined as the concentration that achieved 50% inhibition, and KI values were calculated using KI=IC50/(S/Km+1). Vmax and Km at various Fab concentrations were measured to determine the inhibition type. FRET inhibition assays were also used for selectivity tests of isolated Fabs with the relevant proteases.

cathepsin B [2] = target: T1, cathepsin B; assay: FRET peptide inhibition assay, cathepsin B (M-2595); format: biochemical; settings: Fab; for Ki: cathepsin B, FRET peptide, read-out: Inhibition Potency KI
Procedure: as §1

cdMMP-14 = cdMMP-14 (Homo sapiens, UniProt P50281); assay: In vitro proteolytic stability of Fab with its target protease (cdMMP-14); format: physicochemical; parameters: human MMP-14 (residue 114-320); hexahistidine (C); made in house; host or cells: E. coli (periplasm); settings: 1 μM Fab with 1 μM protease, 37° C., 24 hours, SDS-PAGE
cdMMP-9 = assay: FRET inhibition selectivity test, cdMMP-9 (Example 1); format: biochemical; settings: Fab at 500 nM
Procedure: as §1

BACE1 [3] = target: T3, BACE1 (Homo sapiens, UniProt P56817); assay: FRET peptide inhibition assay, BACE1 (M-2420); format: biochemical; settings: IgG format; BACE-1, FRET peptide
T3 construct: human β-secretase 1 (BACE1, residue 46-457); made in house; host or cells: HEK293F (secreted, protein A purified)
T3 sequence (P56817 46-457): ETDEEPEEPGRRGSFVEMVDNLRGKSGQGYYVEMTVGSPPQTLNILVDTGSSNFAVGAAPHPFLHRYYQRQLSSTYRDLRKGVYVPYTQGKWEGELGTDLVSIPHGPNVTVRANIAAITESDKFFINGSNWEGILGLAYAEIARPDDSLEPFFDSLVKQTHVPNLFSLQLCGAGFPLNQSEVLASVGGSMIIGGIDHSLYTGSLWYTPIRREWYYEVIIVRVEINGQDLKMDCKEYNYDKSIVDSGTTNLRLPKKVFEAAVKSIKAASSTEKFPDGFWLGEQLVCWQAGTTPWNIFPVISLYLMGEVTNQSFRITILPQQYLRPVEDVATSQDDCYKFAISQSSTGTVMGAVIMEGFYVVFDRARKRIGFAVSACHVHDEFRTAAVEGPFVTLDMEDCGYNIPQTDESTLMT
Procedure: as §1

BACE1 [4] = target: T3, BACE1; assay: Amyloid precursor protein (MBP-APP571-696) degradation by BACE1; format: biochemical; settings: 1 μM IgG, 1 μM BACE1, 5 μM MBP-APP, 37° C., 24 h; 86% without IgG
Procedure: (§2) For amyloid precursor protein (APP) degradation studies, APP571-696 was cloned to the C-terminal of maltose binding protein (MBP) for E. coli expression and purified using amylose resin (NEB). 5 μM purified MBP-APP was incubated with 1 μM BACE1-Fc in the absence or presence of 1 μM IgG in BACE1 assay buffer at 37° C. for 24 h. In addition, APP571-696 was cloned to a pcDNA plasmid carrying a SPE leader for secretion expression. Transfected HEK293F cells were cultured in Expi293 media for 72 hrs with the presence of 14-800 nM purified IgG. The supernatants were clarified by centrifugation and 0.45 μm filtration, and produced Aβ1-40 was quantified by ELISA (Abcam).

BACE2 = target: T4, BACE2 (Homo sapiens, UniProt Q9Y5Z0); assay: FRET inhibition selectivity test, BACE2; format: biochemical; settings: IgG
T4 sequence (Q9Y5Z0 63-518): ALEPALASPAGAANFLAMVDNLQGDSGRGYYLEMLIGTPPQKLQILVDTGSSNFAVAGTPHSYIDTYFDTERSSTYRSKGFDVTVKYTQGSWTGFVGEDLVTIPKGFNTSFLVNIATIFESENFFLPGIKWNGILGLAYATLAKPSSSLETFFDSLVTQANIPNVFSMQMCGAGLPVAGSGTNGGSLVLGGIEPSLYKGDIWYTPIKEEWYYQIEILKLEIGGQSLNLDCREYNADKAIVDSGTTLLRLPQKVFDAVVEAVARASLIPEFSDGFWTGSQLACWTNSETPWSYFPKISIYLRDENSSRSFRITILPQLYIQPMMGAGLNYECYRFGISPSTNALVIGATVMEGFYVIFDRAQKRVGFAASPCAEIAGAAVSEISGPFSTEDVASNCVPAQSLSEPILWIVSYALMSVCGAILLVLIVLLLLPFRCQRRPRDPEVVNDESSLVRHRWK
Procedure: as §1

[5] = test system: HEK293F cells expressing APP571-696; assay: Aβ40 formation in HEK293F cells expressing APP571-696 (ELISA); format: cell-based; settings: HEK293 cells expressing APP, IgG 72 h, dose-dependent
Procedure: as §2

B1: Fab CBA1: anti-cathepsin B antibody clone; VL SEQ ID NO:110, VH SEQ ID NO:85, CDR-H3 SEQ ID NO:87 (antibody, V domains shown)
VH: EVQLVESGGGLVQPGGSLRLSCAASGFNLYSSYIHWVRQAPGKGLEWVASIYPYSSSTSYADSVKGRFTISADTSKNTAYLQMNSLRAEDTAVYYCARGGGSWSAMDYWGQGTLVTVSSAS
VL: DIQMTQSPSSLSASVGDRVTITCRASQSVSSAVAWYQQKPGKAPKLLIYSASSLYSGVPSRFSGSRSGTDFTLTISSLQPEDFATYYCQQHYSLITFGQGTKVEIKR
Kd (cathepsin B [1]): 290 nM | Inhibition of cathepsin K (selectivity) (cathepsin K): but not cathepsin K | Inhibition of cathepsin B (in words) (cathepsin B [2]): inhibited cathepsin B completely | Ki (cathepsin B [2]): 200 nM

B2: Fab 2B4: anti-MMP-14 antibody clone; VL SEQ ID NO:88, VH SEQ ID NO:1, CDR-H3 SEQ ID NO:4 (antibody, V domains shown)
VH: EVQLVESGGGLVQPGGSLRLSCAASGFNLYSSYIHWVRQAPGKGLEWVASIYSSYSSTYYADSVKGRFTISADTSKNTAYLQMNSLRAEDTAVYYCARSDSAVYSVRRMGSSGLAAYAMDYWGQGTLVTVSSAS
VL: DIQMTQSPSSLSASVGDRVTITCRASQSVSSAVAWYQQKPGKAPKLLIYSASSLYSGVPSRFSGSRSGTDFTLTISSLQPEDFATYYCQQYSYGYSSLITFGQGTKVEIKR
Fab remained intact after exposure to protease (cdMMP-14): 76% | Inhibition of cdMMP-9 (selectivity) (cdMMP-9): did not inhibit

B3: IgG B1A4: anti-BACE1 inhibitory Fab B1A4 converted into IgG format (antibody, V domains shown)
VH: EVQLVESGGGLVQPGGSLRLSCAASGFNISYSSIHWVRQAPGKGLEWVAYISPSSSYTSYADSVKGRFTISADTSKNTAYLQMNSLRAEDTAVYYCARHYYVSVGSGIDYWGQGTLVTVSSAS
VL: B2 VL with L73P, Y91A, Y93A, G94S, Y95P, S96Y, S97A
Inhibition Potency KI (associated IgG, in parentheses) (BACE1 [3]): 35 nM | Cleavage of APP571-696 by BACE1 in presence of IgG (BACE1 [4]): 37% | Inhibition of BACE2 (selectivity) (BACE2): but not BACE2

B4: Fab CBA2: anti-cathepsin B antibody clone; VL SEQ ID NO:108, VH SEQ ID NO:81, CDR-H3 SEQ ID NO:84 (antibody, V domains shown)
VH: EVQLVESGGGLVQPGGSLRLSCAASGFNIYYYSIHWVRQAPGKGLEWVAYIYSYYGSTYYADSVKGRFTISADTSKNTAYLQMNSLRAEDTAVYYCARYGYPGGYHFWGWWSSPYAFDYWGQGTLVTVSSAS
VL: B2 VL with Y91W, Y93S, G94S, Y95W, S96G, S97Y
Kd (cathepsin B [1]): 190 nM | Inhibition of cathepsin K (selectivity) (cathepsin K): but not cathepsin K | Inhibition of cathepsin B (in words) (cathepsin B [2]): inhibited cathepsin B completely | Ki (cathepsin B [2]): 130 nM

B5: IgG B2B2: anti-BACE1 IgG of clone B2B2 (antibody, V domains shown)
VH: EVQLVESGGGLVQPGGSLRLSCAASGFNISSYYMHWVRQAPGKGLEWVASIYSSYGYTYYADSVKGRFTISADTSKNTAYLQMNSLRAEDTAVYYCARYWGYYAWFGSHPWAYGAFDYWGQGTLVTVSSAS
VL: DIQMTQSPSSLSASVGDRVTITCRASQSVSSAVAWYQQKPGKAPKLLIYSASSLYSGVPSRFSGSRSGTDFTLTISSLQPEDFATYYCQQYGYYLITFGQGTKVEIKR
Reduction of amyloid beta (Aβ40) production [5]: 80%
